From the DeepSol protein solubility set

Assay: soluble on expression in E. coli; label from the status in PepcDB or PDB records
For “MPLEASELKPTAGPLEASELKPTAGPLEASELKPTAGPLEASELKPTAGPLEASELKPTAGPLEASELKPTAGPLEASELKPTAGMYAFKAVKQYFYPSDNLKVLMHKFTDMVNFTINIMIEKNLTSRNSVSNEVYHKLKEYEIPSYYYIEAINKAVALVKTYRKRLKKKQKATVPHVEKPMLSTYYGFKIVGGNLMIPIANREYESIPLNAYVRDATSMVKVHSFALSAYTLSLTIGRDVDAIECTTTVGVDRNLRNATVGNEFHHEIYDLSNVVEIKQRYRKKESHFHRNDRRIREKILSKYGKRERNRVKQIMHETSKAIVSNASTRKEMIVLENIRGINKITKKGDGKGKDYRFLLKNAFPYGMLASQVMYKASWEGLPVIELTRKETRNTSRMCSVCGSLTRIEHGRILKCDSCGLEIDRDVNACINIAFRYRTCLKRSHKGLPGEAVKQSKDVEQMAGSQISTDILEHHHHHH”, the “soluble on expression in E. coli” value was “soluble”.
In the case of “MEKKLVPQSISKERLQKLEAQATLTPQQEEAKARKIEREKARLKELNIPTESKESKDCSPAGMINPYALTEVILERPLDWSNPRTTDIVERVLGSSMQDLSKGDSVLRAGRDQNAEVKIVDSVLTKTQRGQDGLERILESFNDYDMPPEEKEEAAPKAKKAAQKLDIDDLREQALSSTTITKEISKIILPTKNLRDDNNTVHQYREVGFQSNGAHNLWDTVVQGIAGDC”, the “soluble on expression in E. coli” value is reported as “not soluble”.
For “GSHEATVEYLADLVKEKKHLTLFPHMFSNVERLLDDEIGRVRVALFQTEFPRVELPEPAG”, the “soluble on expression in E. coli” value was “soluble”.
With “MMKEMTVQQMTEKVLNKESLFILDVRNESDFRDWKIEGENFAYLNVPYFELVHGVDSIVDRLPKDQDIVVVCAKGGSAAFVAEQLAEAGFDNVYTLAGGMQAWSEHLHQAKVYEDDQLKIYQFIRVGKGCLSYMVLSGDEALVVDPLRFIDVYEQVAQQEGVTITHIVDSHLHADHLSGGKALAERTGAAYYLMKSEGAVFDFEPLEQHETIDFENVHLEVLAVKTPGHTPGSVSFFVNGKWLFSGDTIFVGGLGRPDLGGKVAEWAEDLYHTVYEKVAAMADDVIVLPAHYANLDEEINAEGYVGDTLGRIRARNEMMQNKAKDEFIDLVIQGAKTETPPNFEDIVAINRGLKTVDIETQRELEIGPLEHHHHHH” the “soluble on expression in E. coli” value was “soluble”.
With “MSLTKTLIVNAHPDFRNAAHYSVQLEQAFLQLFQTRFPNDTVDVLNLYDTVIPQATVPELLGIWEKQAQHVNLSIEEQRLFAINQQLLQQFKAHHRIVIAMPLHNFNVPARLKDYIDNILVARETFRYTENGSVGLMTDNYRVMLLQASGSIYTRNDRYTPMEFSRLYLDKMFTEIMGFDRFEIVRAQGLQTNGVAVSQALKQAKMDLKAAFERFYDEGHHHHHH” the “soluble on expression in E. coli” value was “soluble”.
With “MTLSAIQPNDMALYHYDSCPFCAKTRHAINELDLNIELRNIQKNHQHRIELQQGGNKTQVPCLRIGQSNGKAQWLYESGDIINFLRNRK” the “soluble on expression in E. coli” value was “not soluble”.
For “MRGSHHHHHHTDPALRANKVAQYYRELVASLSERLRNGERDIDALVEQARERVIKTGELTRTEVDELTRAVRRDLEEFAMSYEESLKEESDSVFMRVIKESLWQELADITDKTQLEWREVFQDLNHHGVYHSGEVVGLGNLVCEKCHFHLPIYTPEVLTLCPKCGHDQFQRRPFEPGLCGR”, the “soluble on expression in E. coli” value was “soluble”.
In the case of “MGSDKIHHHHHHLINVAETTGLQTKAFVGEADFQIVDYAGDKCIQFKNDSVFNAMLWEMNDMSEEERNNIFSGAGFVSQWQLMQEADQEQELIVDNYEKDLSQPWPAHQIKEFKQKYDDVFMFEPYDSTDFIAHYKLKGSTYSSFVNRRGVFLIGDSVAHAPVYKALEEYFGSGISLYGNNEATNEKNDINLAESKYQIPGGDYVKVRAIPRFIELQTIENKNYLSLGFDYLSQKKKVLWKKHRTMIILRLTASGSGSGFEVYNVSIKNYQNKNGVTILLHTDVYNKLLAKDQGGMLGHVGENPRNSVTIVTPPRFEFSGRMEIWSDEMPESNKGTAKISLKEDW”, the “soluble on expression in E. coli” value is reported as “not soluble”.
For “MHADLVIVGAGMVGSALALALEGSGLEVLLVDGGSLDVAPFKPEAPYEPRVSALSEASRRILQRLHAWDGIVARRAEPYREMQVWDGSGTGRIGFSAASVHAEVLGHIVENRVVQDALLERLHDSTTGLLANARLEQMRHSGDDWLLTLADGRQLRAPLVVAADGANSAVRRLAGCATREWDYLHHAIVTSVRCENAHRATAWQRFTDDGPLAFLPLPDRGDEHWCSIVWSTTPEQAERLMALDEDGFRAALGEAFEQRLGAILHADRRLCIPLRQRHAKRYVEPGLALVGDAAHTIHPLAGQGVNLGFLDAAVLSEVLLHALERGERLADERVLSRFERRRMPHNLGMMTAMEGFERLFQADRLPLRWLRNAGLRLVDGHHEAKALFVRQALGLSGDLPMLARVLEHHHHHH”, the “soluble on expression in E. coli” value was “soluble”.
